Measured values reported in PMC10213618 (Frontiers in Immunology, 2023).
Primed or numbered codes have the meaning given here. Where no end group is shown, it is not given here. [ ]: non-standard residue; d: D form. PEG2′ = diethylene glycolate linker

B1: aMSA-HAP chimeric peptide (peptide)
chain: IHVTIPADLWDWINK[PEG2′]TCPDGQRDRGGCSGPYSCGGDNCCAYAAASVYRGYSCKDTYEW
modifications: disulfide (positions not given here); not fully specified
B2: FabT (Fab, V domains shown)
VH: EVQLVESGGGLVKPGGSLRLSCAASGYTFTDNYIHWVRQAPGKGLEWIGYINPSSAYAHYNEKFKTRFTISVDKAKNSAYLQMNSLRAEDTAVYYCTRRYYSAMPFAYWGQGTLVTVSS
VL: DIQMTQSPSSLSASVGDRVTITCRASEDIYSGLAWYQQKPGKVPKLLIYDSSTLHTGVPSRFSGTGSGTDYTLTISSLQPEDVATYFCQQNYDFPLTFGQGTKLEIK
notes: humanised VH with human gamma1 CH1; humanised VL with human C kappa; also called parent FabT; unmodified FabT fragment; source: CHO-S XE, transient, purified (Protein G, SEC)

Columns and labels:
IL-17A [1] = target: T1, IL-17A (UniProt Q16552 24-155); assay: cell-based or functional assay
T1 sequence (Q16552 24-155): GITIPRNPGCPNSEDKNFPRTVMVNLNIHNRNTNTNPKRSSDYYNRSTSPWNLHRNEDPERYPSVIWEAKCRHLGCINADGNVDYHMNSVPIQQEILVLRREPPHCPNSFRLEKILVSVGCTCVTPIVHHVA

IL-17A [2] = target: T1, IL-17A; assay: SPR; IL-17A amine-coupled to a CM5 chip (110-270 RU); chimeric peptides 1000 nM to 15.5 nM flowed in HBS-EP+; steady state fitting; conditions: both partners purified
mouse serum albumin = target: T2, mouse serum albumin (mouse, UniProt P07724 25-608); assay: SPR; HSA or MSA amine-coupled to a CM5 chip (110-270 RU); peptides 1000 nM to 15.5 nM flowed in HBS-EP+; multi-cycle kinetics, 1:1 binding model; conditions: both partners purified
T2 construct: mouse serum albumin; also called MSA
T2 sequence (P07724 25-608): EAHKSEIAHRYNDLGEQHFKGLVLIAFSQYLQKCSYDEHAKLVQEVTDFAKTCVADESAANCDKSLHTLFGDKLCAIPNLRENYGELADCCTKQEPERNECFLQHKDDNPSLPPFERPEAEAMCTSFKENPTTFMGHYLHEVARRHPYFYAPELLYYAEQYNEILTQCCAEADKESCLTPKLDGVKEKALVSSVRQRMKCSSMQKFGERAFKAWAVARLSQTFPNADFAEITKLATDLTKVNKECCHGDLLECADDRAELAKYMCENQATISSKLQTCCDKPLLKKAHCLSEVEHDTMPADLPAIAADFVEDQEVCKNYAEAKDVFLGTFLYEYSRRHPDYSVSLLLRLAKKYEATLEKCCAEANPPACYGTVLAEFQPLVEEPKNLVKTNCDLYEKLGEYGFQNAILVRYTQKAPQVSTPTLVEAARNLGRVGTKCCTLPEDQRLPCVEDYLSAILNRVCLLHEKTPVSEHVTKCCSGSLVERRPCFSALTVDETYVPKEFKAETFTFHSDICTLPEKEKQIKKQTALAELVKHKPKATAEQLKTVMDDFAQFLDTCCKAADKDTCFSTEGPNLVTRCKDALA

human TNFα = target: T3, human TNFα (Homo sapiens, UniProt P01375); assay: SPR; Biacore 8K+, multi-cycle kinetics, 25°C; Fab captured by immobilised anti-human Fab antibodies; serial dilutions of TNFα injected in HBS-EP+; 1:1 binding model; conditions: both partners purified
T3 construct: human tumour necrosis factor alpha, UniProt P01375
T3 sequence (P01375 whole entry): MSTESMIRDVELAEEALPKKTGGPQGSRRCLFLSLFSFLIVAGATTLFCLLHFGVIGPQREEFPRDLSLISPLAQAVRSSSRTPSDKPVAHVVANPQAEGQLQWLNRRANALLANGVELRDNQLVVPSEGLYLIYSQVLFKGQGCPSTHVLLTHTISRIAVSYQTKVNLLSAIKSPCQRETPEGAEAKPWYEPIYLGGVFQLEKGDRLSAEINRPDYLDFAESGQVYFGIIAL

| Binder | IC50 of inhibition of IL-6 release from human dermal fibroblasts stimulated with IL-17A and TNFα (blocks IL-17A with IL-17RA) (IL-17A [1]) [nM] | Kd (IL-17A [2]) [nM] | Kd (mouse serum albumin) [nM] | koff (mouse serum albumin) [s⁻¹] | kon (mouse serum albumin) [M⁻¹ s⁻¹] | Kd (human TNFα) [nM] | koff (human TNFα) [s⁻¹] | kon (human TNFα) [M⁻¹ s⁻¹] |
| --- | --- | --- | --- | --- | --- | --- | --- | --- |
| B1 | 38 | 275 | 370 | 0.00166 | 4500 | – | – | – |
| B2 | – | – | – | – | – | 0.221 | 9.9e-05 | 447000 |
